Numbered stars: 1 amine (or outer) side, 2 acyl side, 3 side chain; on linkers, the order of the positions; unused ones are H or OH. Bridge positions count the residues as written; N and C are the ends. Square brackets hold non-standard residues; d marks the D form. Ends that are not written are not given here. Dip = N[C@H](C(=O)O)C(c1ccccc1)c1ccccc1; 1Nal = N[C@@H](Cc1cccc2ccccc12)C(=O)O; TBMB = c1c(C[*:1])cc(C[*:3])cc1C[*:2]; Ala(cPr) = N[C@@H](CC1CC1)C(=O)O; hArg = N=C(N)NCCCC[C@H](N)C(=O)O; Gly(cPr) = N[C@H](C(=O)O)C1CC1; Cba = N[C@@H](CC1CCC1)C(=O)O; Tle = CC(C)(C)[C@H](N)C(=O)O; Aib = CC(C)(N)C(=O)O; Sar = CNCC(=O)O
Target: T1, Human EphA2 (Ecto) (Human, UniProt P29317 24-537)
T1 construct: extracellular domain
Assay: FP competition; competitor Compound 18
Description: Peptides without a fluorescent tag were tested in competition with a peptide with a fluorescent tag and a known Kd (Table 2). Peptides were diluted to an appropriate concentration in assay buffer as described in the direct binding assay with a maximum of 5% DMSO, then serially diluted 1 in 2. Five μL of diluted peptide was added to the plate followed by 10 μL of human or mouse EphA2 (Table 1) at a fixed concentration which was dependent on the fluorescent peptide used (Table 2), then 10 μL fluorescent peptide added. Measurements were conducted as for the direct binding assay, however the gain was determined prior to the first measurement.

T1 sequence (P29317 24-537): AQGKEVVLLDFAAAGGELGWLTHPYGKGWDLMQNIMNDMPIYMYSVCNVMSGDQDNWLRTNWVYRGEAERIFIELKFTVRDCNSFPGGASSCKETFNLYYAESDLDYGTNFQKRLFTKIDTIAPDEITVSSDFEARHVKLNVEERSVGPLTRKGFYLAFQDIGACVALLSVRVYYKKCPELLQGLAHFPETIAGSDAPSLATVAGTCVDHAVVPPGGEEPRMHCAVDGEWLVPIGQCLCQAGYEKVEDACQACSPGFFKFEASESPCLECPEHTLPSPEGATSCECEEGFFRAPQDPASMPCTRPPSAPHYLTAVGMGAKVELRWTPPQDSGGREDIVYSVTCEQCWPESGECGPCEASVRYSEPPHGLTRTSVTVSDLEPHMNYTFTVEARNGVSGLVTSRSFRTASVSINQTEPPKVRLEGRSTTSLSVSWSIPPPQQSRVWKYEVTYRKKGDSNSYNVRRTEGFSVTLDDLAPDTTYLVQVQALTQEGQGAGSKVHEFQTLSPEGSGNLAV

Question: How did the Ki turn out when [Sar][Sar]ACPWGPFWCPVNRP[dA]C (linker 4-11-18 via TBMB) [Compound 112] was run?
Answer: Its Ki is 89 nM.

Question: For [Sar][Sar]ACP[1Nal]GPFWCP[Tle]N[hArg]PGC (linker 4-11-18 via TBMB) [Compound 130], which Ki is on record?
Answer: Its Ki is 0.29 nM.

Question: For [Sar][Sar]ACP[1Nal]GPFWCP[Tle]N[hArg][Aib]GC (linker 4-11-18 via TBMB) [Compound 138], which Ki is on record?
Answer: The Ki was 5.1 nM.

Question: Ac-[Sar][Sar]ADVHCPWGPFWCPVNRPGC (linker 7-14-21 via TBMB) [Compound 148] was tested. Which Ki did it give?
Answer: Its Ki is 1.2 nM.

Question: Ac-[Sar][Sar]ADVTCPWGPFWCPVNRPGC (linker 7-14-21 via TBMB) [Compound 157] was tested. Which Ki did it give?
Answer: The Ki was 0.91 nM.

Question: For ADVHCP[Dip]GPFWCPVNRPGCA (linker 5-12-19 via TBMB) [Compound 149], which Ki is on record?
Answer: Its Ki is 52.8 nM.

Question: How did the Ki turn out when ADVHCP[1Nal]GPFWCPVNRPGCA (linker 5-12-19 via TBMB) [Compound 150] was run?
Answer: The Ki was 0.12 nM.

Question: ADVHCPWAPFWCPVNRPGCA (linker 5-12-19 via TBMB) [Compound 151] was tested. Which Ki did it give?
Answer: Its Ki is 394 nM.

Question: Which Ki does the source give for ADVHCPWGAFWCPVNRPGCA (linker 5-12-19 via TBMB) [Compound 152] here?
Answer: Its Ki is 1.8 nM.

Question: ADVHCPWG[Aib]FWCPVNRPGCA (linker 5-12-19 via TBMB) [Compound 153] was tested. Which Ki did it give?
Answer: Its Ki is 0.51 nM.

Question: Which Ki does the source give for ADVHCPWGPFWCPV[dA]RPGCA (linker 5-12-19 via TBMB) [Compound 155] here?
Answer: The Ki was 2 nM.

Question: ADVHCPWGPFWCPVN[dA]PGCA (linker 5-12-19 via TBMB) [Compound 156] was tested. Which Ki did it give?
Answer: The Ki was 14.9 nM.

Question: Which Ki does the source give for Ac-[Sar][Sar]A[dD]VTCPWGPNWCPVNRPGC (linker 7-14-21 via TBMB) [Compound 172] here?
Answer: The Ki was 3.96 nM.

Question: Which Ki does the source give for Ac-[Sar][Sar]A[dD]VTCPWGPAWCPVNRPGC (linker 7-14-21 via TBMB) [Compound 173] here?
Answer: Its Ki is 6.69 nM.

Question: For Ac-[Sar][Sar]A[dD]VTCPWGPFWCPLNRPGC (linker 7-14-21 via TBMB) [Compound 174], which Ki is on record?
Answer: The Ki was 9.1 nM.

Question: Which Ki does the source give for Ac-[Sar][Sar]A[dD][dD]TCPWGPFWCPVNRPGC (linker 7-14-21 via TBMB) [Compound 159] here?
Answer: Its Ki is 2.85 nM.

Question: How did the Ki turn out when Ac-[Sar][Sar]A[dD][Cba]TCPWGPFWCPVNRPGC (linker 7-14-21 via TBMB) [Compound 160] was run?
Answer: Its Ki is 2.6 nM.

Question: How did the Ki turn out when Ac-[Sar][Sar]A[dD][Ala(cPr)]TCPWGPFWCPVNRPGC (linker 7-14-21 via TBMB) [Compound 161] was run?
Answer: The Ki was 4.44 nM.

Question: Which Ki does the source give for Ac-[Sar][Sar]A[dD][Gly(cPr)]TCPWGPFWCPVNRPGC (linker 7-14-21 via TBMB) [Compound 162] here?
Answer: The Ki was 2.55 nM.

Question: Which Ki does the source give for Ac-[Sar][Sar]AD[Tle]TCPWGPFWCPVNRPGC (linker 7-14-21 via TBMB) [Compound 164] here?
Answer: The Ki was 2.25 nM.

Question: Ac-[Sar][Sar]A[dD]VTCP[1Nal]GPFWCPVNRPGC (linker 7-14-21 via TBMB) [Compound 170] was tested. Which Ki did it give?
Answer: The Ki was 0.6 nM.

Question: For Ac-[Sar][Sar]A[dD]VTCPWGP[hArg]WCPVNRPGC (linker 7-14-21 via TBMB) [Compound 171], which Ki is on record?
Answer: Its Ki is 4.88 nM.

Question: How did the Ki turn out when Ac-[Sar][Sar]A[dD]VTCPWGPFWCPVNRP[dD]C (linker 7-14-21 via TBMB) [Compound 175] was run?
Answer: The Ki was 1.78 nM.

Question: For Ac-[Sar][Sar]A[dD]VTCPWGPFWCPVN[hArg]P[dD]C (linker 7-14-21 via TBMB) [Compound 176], which Ki is on record?
Answer: Its Ki is 4.89 nM.

Question: Which Ki does the source give for Ac-[Sar][Sar]A[dD]VTCPWGPFWCPVNR[Aib][dD]C (linker 7-14-21 via TBMB) [Compound 177] here?
Answer: Its Ki is 4.43 nM.

Question: With Ac-[Sar][Sar]A[dD]VTCP[1Nal]G[Aib]FWCPVNR[Aib]GC (linker 7-14-21 via TBMB) [Compound 178] as the binder, how does the Ki read?
Answer: The Ki was 2.4 nM.

Question: With Ac-[Sar][Sar]A[dD]VTCPWG[Aib]F[1Nal]CPVNR[Aib]GC (linker 7-14-21 via TBMB) [Compound 179] as the binder, how does the Ki read?
Answer: Its Ki is 2.94 nM.

Question: With Ac-[Sar][Sar]A[dD]VTCPWG[Aib]FWCP[Tle]NR[Aib]GC (linker 7-14-21 via TBMB) [Compound 180] as the binder, how does the Ki read?
Answer: The Ki was 3.83 nM.

Question: With Ac-[Sar][Sar]A[dD]VTCP[1Nal]G[Aib]F[1Nal]CPVNR[Aib]GC (linker 7-14-21 via TBMB) [Compound 181] as the binder, how does the Ki read?
Answer: Its Ki is 1.37 nM.

Question: For [dD]VTCPWGPFWCPVNRPGC (linker 4-11-18 via TBMB) [Compound 185], which Ki is on record?
Answer: The Ki was 2.17 nM.

Question: With AHDVPCP[1Nal]GPFWCPVNRPGCA (linker 6-13-20 via TBMB) [Compound 187] as the binder, how does the Ki read?
Answer: The Ki was 0.32 nM.

Question: AHDVPCP[1Nal]GPFWCPVNRPGC (linker 6-13-20 via TBMB) [Compound 188] was tested. Which Ki did it give?
Answer: The Ki was 1.45 nM.

Question: AHDVPCPWGPF[1Nal]CPVNRPGC (linker 6-13-20 via TBMB) [Compound 189] was tested. Which Ki did it give?
Answer: Its Ki is 1.3 nM.

Question: With AHDVPCP[1Nal]GPFWCP[Tle]NRPGC (linker 6-13-20 via TBMB) [Compound 190] as the binder, how does the Ki read?
Answer: The Ki was 0.7 nM.

Question: AHDVPCP[1Nal]G[Aib]FWCP[Tle]N[hArg]PGC (linker 6-13-20 via TBMB) [Compound 191] was tested. Which Ki did it give?
Answer: Its Ki is 3.1 nM.

Question: Which Ki does the source give for AHDVPCP[1Nal]G[Aib]FWCP[Tle]NR[Aib]GC (linker 6-13-20 via TBMB) [Compound 192] here?
Answer: Its Ki is 1.75 nM.

Question: For Ac-[Sar][Sar]AHDVPCPWGPFWCPVNRPGC (linker 8-15-22 via TBMB) [Compound 193], which Ki is on record?
Answer: Its Ki is 0.59 nM.

Question: Ac-[Sar][Sar]AADVPCPWGPFWCPVNRPGC (linker 8-15-22 via TBMB) [Compound 195] was tested. Which Ki did it give?
Answer: Its Ki is 1.01 nM.

Question: [Sar][Sar]AHAVPCPWGPFWCPVNRPGC (linker 8-15-22 via TBMB) [Compound 205] was tested. Which Ki did it give?
Answer: The Ki was 1.8 nM.

Question: For [Sar][Sar]AHEVPCPWGPFWCPVNRPGC (linker 8-15-22 via TBMB) [Compound 207], which Ki is on record?
Answer: The Ki was 1.3 nM.

Question: With [Sar][Sar]AHDAPCPWGPFWCPVNRPGC (linker 8-15-22 via TBMB) [Compound 214] as the binder, how does the Ki read?
Answer: The Ki was 22.5 nM.

Question: For [Sar][Sar]AHDVACPWGPFWCPVNRPGC (linker 8-15-22 via TBMB) [Compound 218], which Ki is on record?
Answer: Its Ki is 1.27 nM.

Question: Ac-[Sar][Sar][dA]HDVPCPWGPFWCPVNRPGC (linker 8-15-22 via TBMB) [Compound 194] was tested. Which Ki did it give?
Answer: Its Ki is 1.2 nM.

Question: How did the Ki turn out when Ac-[Sar][Sar]A[dH]DVPCPWGPFWCPVNRPGC (linker 8-15-22 via TBMB) [Compound 196] was run?
Answer: Its Ki is 0.95 nM.

Question: With Ac-[Sar][Sar]A[dD]DVTCPWGPFWCPVNRPGC (linker 8-15-22 via TBMB) [Compound 281] as the binder, how does the Ki read?
Answer: Its Ki is 5.78 nM.

Question: Which Ki does the source give for [Sar][Sar]A[dH]DVPCPWGPFWCPVNRPGC (linker 8-15-22 via TBMB) [Compound 197] here?
Answer: The Ki was 1.2 nM.

Question: With Ac-[Sar][Sar]A[dH]DVCPWGPFWCPVNRPGC (linker 7-14-21 via TBMB) [Compound 198] as the binder, how does the Ki read?
Answer: The Ki was 20 nM.

Question: For [Sar][Sar]A[dA]DVPCPWGPFWCPVNRPGC (linker 8-15-22 via TBMB) [Compound 199], which Ki is on record?
Answer: The Ki was 3.35 nM.

Question: Ac-[Sar][Sar]A[dD]DVPCPWGPFWCPVNRPGC (linker 8-15-22 via TBMB) [Compound 200] was tested. Which Ki did it give?
Answer: Its Ki is 4.1 nM.
